Assay results reported in US20260258125A1 (NONA BIOSCIENCES SUZHOU, published 2026).

T1: recombinant CEACAM5-his protein, biotinylated (UniProt P06731 35-685, limits assumed, biotinylated (sites not given))
T1 construct: not shown: His tag
T1 sequence (looked up): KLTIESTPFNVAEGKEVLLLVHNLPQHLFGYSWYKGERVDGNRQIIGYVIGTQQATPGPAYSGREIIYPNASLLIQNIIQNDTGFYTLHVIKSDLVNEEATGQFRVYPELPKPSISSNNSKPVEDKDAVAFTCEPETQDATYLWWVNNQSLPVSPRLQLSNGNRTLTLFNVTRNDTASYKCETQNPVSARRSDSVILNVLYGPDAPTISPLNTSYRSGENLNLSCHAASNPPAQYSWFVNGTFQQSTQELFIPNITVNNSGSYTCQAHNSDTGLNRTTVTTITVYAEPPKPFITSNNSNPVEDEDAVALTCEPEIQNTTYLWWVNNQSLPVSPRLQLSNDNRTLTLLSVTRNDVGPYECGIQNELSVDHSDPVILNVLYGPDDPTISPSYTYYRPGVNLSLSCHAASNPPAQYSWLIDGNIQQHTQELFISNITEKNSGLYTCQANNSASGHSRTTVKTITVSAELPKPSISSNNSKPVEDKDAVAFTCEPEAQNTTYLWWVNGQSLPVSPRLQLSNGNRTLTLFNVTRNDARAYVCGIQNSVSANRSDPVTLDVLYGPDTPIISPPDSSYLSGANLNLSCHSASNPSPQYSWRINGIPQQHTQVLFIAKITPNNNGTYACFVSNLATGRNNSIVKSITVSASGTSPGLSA

T2: human CEACAM6 on 293T cells (293T-huCEACAM6 cells) (human, UniProt P40199 35-320)
T2 construct: whole, on cells
T2 sequence (looked up): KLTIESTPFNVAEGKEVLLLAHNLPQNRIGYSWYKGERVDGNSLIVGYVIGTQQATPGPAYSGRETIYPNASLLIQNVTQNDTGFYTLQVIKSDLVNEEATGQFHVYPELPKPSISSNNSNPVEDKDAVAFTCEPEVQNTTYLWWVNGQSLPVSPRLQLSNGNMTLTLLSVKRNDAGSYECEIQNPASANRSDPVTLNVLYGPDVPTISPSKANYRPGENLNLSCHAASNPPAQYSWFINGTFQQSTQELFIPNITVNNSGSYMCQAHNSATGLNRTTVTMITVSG

T3: human CEACAM1 protein (human, UniProt P13688 35-428)
T3 construct: also called huCEACAM1
T3 sequence (looked up): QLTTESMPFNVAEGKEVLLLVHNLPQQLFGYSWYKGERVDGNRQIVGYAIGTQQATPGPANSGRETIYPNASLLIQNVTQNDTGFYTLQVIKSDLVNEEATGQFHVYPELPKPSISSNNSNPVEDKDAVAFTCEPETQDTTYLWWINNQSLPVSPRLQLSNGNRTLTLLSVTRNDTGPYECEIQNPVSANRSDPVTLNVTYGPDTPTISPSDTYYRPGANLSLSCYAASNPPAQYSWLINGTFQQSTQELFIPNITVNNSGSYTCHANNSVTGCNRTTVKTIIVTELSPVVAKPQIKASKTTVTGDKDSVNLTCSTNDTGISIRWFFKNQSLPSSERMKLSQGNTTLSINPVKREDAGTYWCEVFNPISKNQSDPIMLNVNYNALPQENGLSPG

T4: human CEACAM6 protein (human, UniProt P40199 35-320)
T4 construct: also called huCEACAM6
T4 sequence (looked up): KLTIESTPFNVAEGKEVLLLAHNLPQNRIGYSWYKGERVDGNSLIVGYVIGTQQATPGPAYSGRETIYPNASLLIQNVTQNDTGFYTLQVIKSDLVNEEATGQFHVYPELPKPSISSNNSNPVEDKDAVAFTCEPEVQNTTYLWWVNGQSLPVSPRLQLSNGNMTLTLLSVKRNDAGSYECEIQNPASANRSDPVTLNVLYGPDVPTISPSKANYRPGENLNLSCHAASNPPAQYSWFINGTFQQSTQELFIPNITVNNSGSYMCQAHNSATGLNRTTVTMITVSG

T5: human CEACAM5 protein (human, UniProt P06731 35-685)
T5 construct: also called huCEACAM5
T5 sequence (looked up): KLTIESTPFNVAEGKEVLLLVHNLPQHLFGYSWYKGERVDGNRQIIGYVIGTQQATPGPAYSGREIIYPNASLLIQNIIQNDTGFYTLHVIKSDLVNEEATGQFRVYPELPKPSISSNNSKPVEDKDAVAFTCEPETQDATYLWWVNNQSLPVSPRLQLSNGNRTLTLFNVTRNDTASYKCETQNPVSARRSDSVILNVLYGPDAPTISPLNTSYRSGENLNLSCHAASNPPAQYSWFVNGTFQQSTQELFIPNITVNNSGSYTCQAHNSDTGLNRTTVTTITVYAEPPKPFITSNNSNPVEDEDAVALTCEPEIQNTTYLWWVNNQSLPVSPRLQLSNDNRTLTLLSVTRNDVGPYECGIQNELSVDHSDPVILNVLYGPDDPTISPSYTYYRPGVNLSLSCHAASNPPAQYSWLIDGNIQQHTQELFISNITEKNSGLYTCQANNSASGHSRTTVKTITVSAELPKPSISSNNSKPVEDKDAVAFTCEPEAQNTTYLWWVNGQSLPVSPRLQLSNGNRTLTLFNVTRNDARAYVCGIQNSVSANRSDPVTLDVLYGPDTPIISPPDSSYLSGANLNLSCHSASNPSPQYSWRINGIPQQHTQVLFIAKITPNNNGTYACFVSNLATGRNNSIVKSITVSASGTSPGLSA


Key:
[1] = target: T1, recombinant CEACAM5-his protein, …; experiment: Octet epitope binning on biotinylated CEACAM5-his; competitor PR304171
Description: (§1) In epitope binning analysis using Octet, antibodies were tested against other antibodies in a pairwise fashion to see if antibodies block one another's binding to the epitope of the antigen. The first and second antibodies was diluted into same concentration which could saturate the binding of immobilized antigens. Recombinant CEACAM5-his protein was biotinylationed and was then used as antigen and immobilized to SA sensor. The first antibody was associated with antigen and then followed by the second antibody. Data were analyzed by ForteBio Data Analysis Software (version 8.0, Pall ForteBio). The rate of RU values of the same antibody as 2nd antibody to as 1st antibody was calculated as the co-binding rate of this antibody to other antibodies.

[2] = target: T6, cynomolgus CEACAM5 on CHO-K1 cells (CHOK1-cyno CEACAM5 cells) (cynomolgus monkey); experiment: flow cytometry on CHOK1-cyno CEACAM5 cells
T6 construct: whole, on cells; also called CHOK1-cynoCECAM5
Description: (§2) Binding of recombinant anti-CEACAM5/6 dual-binding antibodies against human or cynomolgus CEACAM5 or CEACAM6 stable cells were detected by flow cytometry. […] Anti-CEACAM5/6 dual-binding antibodies were incubated with the stable cell lines. Anti-CEACAM5/6 dual-binding antibodies were serially diluted in staining buffer (PBS containing 2% FBS). 50 μL of diluted antibody solution was added to 50 μL of cell suspension containing 1-2×10⁵ cells and incubated at 4° C. for 1 hour. […] After 1-hour incubation at 4° C., cells were washed twice and run on a flow cytometer. […] The results were shown in FIGS. 8-10 and Tables 6 below.

[3] = target: T1, recombinant CEACAM5-his protein, …; experiment: Octet epitope binning on biotinylated CEACAM5-his; competitor PR304169
Description: as §1

[4] = target: T2, human CEACAM6 on 293T cells …; experiment: flow cytometry on 293T-huCEACAM6 cells
Description: as §2

cyno CEACAM5 protein = target: T7, cyno CEACAM5 protein (cynomolgus monkey); experiment: ELISA, antigen coated on plate
T7 construct: also called cynomolgus CEACAM5
Source text: (§3) Binding of recombinant anti-CEACAM5/6 dual-binding monoclonal antibodies against human and cynomolgus CEACAM5, and human CEACAM6 (Uniprot P40199), human CEACAM 1, 3 (NP_001806.2, Sino Biological 11933-H08H) and 8 (NP_001807.2, Acro Bio CE8-H5224) were detected by ELISA. Anti-CEACAM5/6 dual-antibodies were serially diluted in staining buffer (PBS containing 2% FBS). […] ELISA was used to test the binding between antibody containing supernatant or purified antibodies and the antigen. Briefly, the antigens were coated on a 96-well high binding plate overnight at 4° C. The plate was washed with PBST three times, incubated with blocking buffer (2% Bovine Serum Albumin) for one hour at 37° C., washed with PBST three times and incubated with antibody containing supernatant or purified antibodies at desired dilutions or concentrations for one hour at 37° C. A secondary antibody, anti-human Fc-HRP (Jackson Laboratory, 109-035-097) was used for detection of the targeted antibody. TMB and stopping solution were used for detection of HRP signal. The HRP signal was read on a SPECTRAMAX plate reader.

human CEACAM1 protein = target: T3, human CEACAM1 protein; experiment: ELISA, antigen coated on plate
Source text: as §3

human CEACAM6 protein = target: T4, human CEACAM6 protein; experiment: ELISA, antigen coated on plate
Source text: as §3

human CEACAM5 protein = target: T5, human CEACAM5 protein; experiment: ELISA, antigen coated on plate
Source text: as §3

Row | co-binding rate [1] | EC50 [2] | co-binding rate [3] | EC50 [4] | EC50 (cyno CEACAM5 protein) | binding result (human CEACAM1 protein) | EC50 (human CEACAM6 protein) | EC50 (human CEACAM5 protein) | Binder
1 | -4.88% | 2.51 nM | 1.02% | 1.32 nM | 0.09 nM | no binding | 0.22 nM | 0.04 nM | PR304294 (antibody, human IgG1, kappa, V domains shown, Recombinant full antibody) VH: EVQLLESGGGLVQPGGSLRLSCAASGFTFSSYAMSWVRQAPGKGLEWVSAISGTTYNTYYAGSVKGRFTISRDNSKNTLYLQMNSLRAEDTAVYYCAKGISVAGYYYYGMDVWGQGTTVTVSS VL: EIVMTQSPATLSVSPGERATLSCRASQSVISNLAWYQQKPGQAPRLLIYGASTRATGIPARFSGSGSGTEFTLTISSLQSEDFAVYYCHQYNNWPLTFGGGTKVEIKR
2 | 13.7% | 14.9 nM | 20.4% | 10.6 nM | 1.25 nM | no binding | 24.1 nM | 0.15 nM | PR304171 (antibody, human IgG1, kappa, V domains shown, Recombinant full antibody) VH: not shown VL: EIVMTQSPATLSVSPGERATLSCRASQNVISNLAWHQQKPGQAPRLLIYTTSTRATGIPARFSGSGSGTEFTLTISSLQSEDFAVYYCQQYNNWPLTFGGGTKVEIKR
